B1: Fab 150 (Fab, V domains shown)
VH: QVQLVESGGGLIQPGGSLRLSCAASGVTVSSNYMSWVRQAPGKGLEWVSIIYSGGTTYYADSVKGRFTISRDSSMNTLYLQMNSLRAEDTAVYYCARDLMVYGIDVWGQGTTVTVSS
VL: EIVMTQSPSSLSASVGDRVTITCRASQGISSYLAWYQQKPGKAPKLLIYAASTLQSGVPSRFSGSGSGTDFTLTISSLQPEDFATYYCQQLDSYPPGYTFGQGTKVDIK
B2: Fab 158 (Fab, V domains shown)
VH: EVQLLESGGDLIQPGGSLRLSCAASGVTVSSNYMSWVRQAPGKGLEWVSIIYPGGSTFYADSVKGRFTISRDNSKNTLYLQMHSLRAEDTAVYYCARDLGSGDMDVWGKGTTVTVSS
VL: DIVMTQSPSFLSASVGDRVTITCRASQGISSYLAWYQQKPGKAPKLLIQAASTLQSGVPSRFSGSGSGTEFTLTISSLQPEDFATYYCQQLNSYRYTFGQGTKVEIK
B3: Fab 316 (Fab, V domains shown)
VH: not shown
VL: QAVLTQPPSASGSPGQSVTISCTGTSSDVGGYNYVSWYQQHPGKAPKLMIYEVSKRPSGVPDRFSGSKSGNTASLTVSGLQAEDEADYYCSSYAGSNHWVFGGGTKLTVL
B4: Fab 40 (Fab, V domains shown)
VH: QVQLVESGGGLVQPGGSLRLSCAVSGFTVSRNYMSWVRQAPGKGLEWVSLIYSGGSTFYADSVKGRFTISRDNSKNTLYLQMNSLRAEDTAVYYCARDLFHRSGYHDYWGQGTLVTVSS
VL: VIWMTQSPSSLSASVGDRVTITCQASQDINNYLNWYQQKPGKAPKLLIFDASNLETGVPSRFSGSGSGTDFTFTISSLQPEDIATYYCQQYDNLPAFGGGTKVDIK
notes: also called 40 Fab
B5: chimeric mAb 253H165L (IgG) (antibody, V domains shown)
VH: not shown
VL: DIVMTQSPGTLSLSPGERATLSCRASQSVRSSYLAWYQQKPGQAPRLLIYGASRRGTGIPDRFSGSGSGTDFTLTISRLEPEDFAVYYCQQYGSSPWTFGQGTKVEIK
B6: chimeric Fab 253H165L (Fab, V domains shown)
VH: not shown
VL: B5 VL
B7: Fab 88 (Fab, V domains shown)
VH: QLQLQESGPGLVKPSQTLSLTCTVSGGSISSGSYNWTWIRQPAGKGLEWIGRIYNSGSTNYNPSLKSRVTISVDTSKNQLSLKVRSVTAADTAVYYCARHCSGGTCYPKYYYGMDVWGQGTTVTVSS
VL: QSALTQPPSVSEAPRQRVTISCSGSSSNIGNNAVNWYQQFPGKAPKLLIYYDDLLPSGVSDRFSGSKSGTSASLAISGVQSEDEADYYCAAWDDSLNVVVFGGGTKLTVL
notes: also called 88 Fab
B8: mAb 150 (IgG) (antibody, V domains shown)
VH: B1 VH
VL: B1 VL
notes: IgG1
B9: mAb 159 (IgG) (antibody, V domains shown)
VH: EVQLVESGGGVVQPGRSLRLSCAASGFTFSSYGMHWVRQAPGKGLEWVALISYDGGNRYYADSVKGRFTISRDNSKNTLYLQMNRLRAEDTAMYYCAKDRDDGWDWYYFMDVWGKGTTVTVSS
VL: DIQLTQSPGTLSLSPGERATLSCRASQSISGNYLAWYQHKPGQAPRLLIYGASTRATGIPDRFSGSGSGTDFTLTISRLEPEDFAVYYCQQYGSSYTFGQGTKVEIK
notes: IgG1; also called 159 (anti-spike); IgG159
B10: Fab 159 (Fab, V domains shown)
VH: B9 VH
VL: B9 VL
notes: also called 159 Fab
B11: mAb 158 (IgG) (antibody, V domains shown)
VH: B2 VH
VL: B2 VL
notes: IgG1
B12: mAb 316 (IgG) (antibody, V domains shown)
VH: not shown
VL: B3 VL
notes: IgG1
B13: mAb 40 (IgG) (antibody, V domains shown)
VH: B4 VH
VL: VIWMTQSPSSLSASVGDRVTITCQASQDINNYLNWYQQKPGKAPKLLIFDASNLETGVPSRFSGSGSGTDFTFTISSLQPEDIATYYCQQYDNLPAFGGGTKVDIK
notes: IgG1
B14: mAb 88 (IgG) (antibody, V domains shown)
VH: B7 VH
VL: B7 VL
notes: IgG1
B15: Fab 45 (Fab, V domains shown)
VH: QVQLVESGGGVVQPGRSLRLSCAASGFTFSTYAMHWVRQAPGKGLEWVAVLSYDGSNKYYADSVKGRFTISRDNSKNTLYLQMNSLRAEDTAVYYCAKGGSYAYYYYMDVWGKGTTVTVSS
VL: not shown
B16: Fab 269 (Fab, V domains shown)
VH: QVQLVESGGGLIQPGGSLRLSCAASGLTVNRNYMSWIRQAPGKGLEWVSVIYSGGSTFYADSVKGRFTISRDNSKNTLSLQMNSLRAEDTAIYYCARDFYEGSFDIWGQGTMVTVSS
VL: AIQLTQSPSFLSASIGDRVTITCRASQGISSYLAWYQQKPGKAPKLLIYAASTLQSGVPSRFSGSGSGTEFTLTISSLQPEDFASYYCQQLNSYPAPVFGPGTKVDIK
B17: Strep-tagged Fab 158 (Fab, V domains shown)
VH: B2 VH
VL: B2 VL
notes: also called Fab58 (as printed in the crystallization paragraph); source: HEK293T, transient transfection, purified (Strep-Tactin)
B18: Fab384 (Fab, V domains shown)
VH: EVQLVESGGGLVKPGESLRLSCAASGFTFSDYYMTWIRQAPGKGLEWVSYIRSSGHTIYYADSVKGRFTISRDNAKNSLYLQMNSLRVEDTAVYYCARGGVLRFLEWPLNAFDIWGQGTMVTVSS
VL: DIQLTQSPSSLSASVGDRVTITCRASQGISNYLAWYQQKPGKVPKLLIYAASTLQSGVPSRFSGSGSGTDFTLTISSLQPEDVATYYCQKYNNALGTFGQGTKVEIK

Each binder was assayed against T1, SARS-CoV-2 spike on intact virus (SARS-CoV-2/human/AUS/VIC01/2020) (SARS-CoV-2, isolate human/AUS/VIC01/2020) (assay: cell-based or functional assay). Conditions: not given.

Point of comparison: B4, “Table S7: Neutralization IC50 (nM), FRNT of authentic SARS-CoV-2, Fab” value 45.7 nM. Against it:
- B1 — 75-fold lower, 0.61 nM
- B2 — 11-fold lower, 4.12 nM
- B3 — 1.7-fold lower, 27.6 nM
- B6 — 8.8-fold lower, 5.22 nM
- B7 — 6.6-fold lower, 6.95 nM

With B5 the “Table S7: Neutralization IC50 (nM), FRNT of authentic SARS-CoV-2” value was 0.03 nM.

Each binder was assayed against T1, SARS-CoV-2 spike on intact virus … (assay: ELISA; whole virus ELISA: SARS-CoV-2 virus captured on plates coated with mouse anti-spike mAb31, serial dilutions of IgG or Fab, ALP anti-human IgG (Fab-specific); Kd = concentration at half-maximal binding by nonlinear regression). Conditions: one partner purified.

Point of comparison: B5, Kd 90 pM. Against it:
- B1 — 8.3-fold higher, 750 pM
- B8 — 2.7-fold higher, 240 pM
- B9 — 2.1-fold higher, 190 pM
- B10 — 3.2-fold higher, 290 pM
- B2 — 41-fold higher, 3730 pM
- B11 — 5.6-fold higher, 500 pM
- B3 — 97-fold higher, 8760 pM
- B12 — within 1.5-fold, 130 pM
- B4 — 14-fold higher, 1230 pM
- B13 — 3.7-fold higher, 330 pM
- B6 — 56-fold higher, 5020 pM
- B7 — 13-fold higher, 1210 pM
- B14 — 2.8-fold higher, 250 pM

Each binder was assayed against His-tagged SARS-CoV-2 RBD (Severe acute respiratory syndrome …, UniProt P0DTC2) (assay: BLI). Conditions: both partners purified.

Point of comparison: B15, Kd 5900 pM. Against it:
- B2 — 8.4-fold lower, 700 pM
- B16 — 2.7-fold lower, 2200 pM

Point of comparison: B3, koff 0.00071 s⁻¹. Against it:
- B2 — 8.5-fold lower, 8.4e-05 s⁻¹
- B15 — 1.5-fold lower, 0.00046 s⁻¹
- B16 — 1.8-fold lower, 0.00039 s⁻¹

Point of comparison: B3, kon 350000 M⁻¹ s⁻¹. Against it:
- B2 — 2.9-fold lower, 120000 M⁻¹ s⁻¹
- B15 — 4.5-fold lower, 78000 M⁻¹ s⁻¹
- B16 — 1.9-fold lower, 180000 M⁻¹ s⁻¹

What follows are binders tested against His-tagged RBD for structural analysis (SARS-CoV-2 Wuhan-Hu-1 (MN908947), UniProt P0DTC2, treated with endoglycosidase H1; 'glycosylated RBD' was used for the complex with Fab S309 and Fab384) (assay: crystal structure). Conditions: both partners purified.

B17: binds.
B18: binds.
